Test results: paper PMC11182334 (Cell, 2024)

Columns and labels:
[1] = molecular target: recombinant untagged VP6 of bluetongue virus, wild type (bluetongue virus (serotype of the cDNA not stated)); assay: cryo-EM structure
[2] = molecular target: T1, VP3 (WT, co-expressed with VP6);VP6 (WT) (Bluetongue virus;Bluetongue virus, UniProt D8V886;D8V892 1-901;1-329, |); assay: EMSA
T1 sequence 1: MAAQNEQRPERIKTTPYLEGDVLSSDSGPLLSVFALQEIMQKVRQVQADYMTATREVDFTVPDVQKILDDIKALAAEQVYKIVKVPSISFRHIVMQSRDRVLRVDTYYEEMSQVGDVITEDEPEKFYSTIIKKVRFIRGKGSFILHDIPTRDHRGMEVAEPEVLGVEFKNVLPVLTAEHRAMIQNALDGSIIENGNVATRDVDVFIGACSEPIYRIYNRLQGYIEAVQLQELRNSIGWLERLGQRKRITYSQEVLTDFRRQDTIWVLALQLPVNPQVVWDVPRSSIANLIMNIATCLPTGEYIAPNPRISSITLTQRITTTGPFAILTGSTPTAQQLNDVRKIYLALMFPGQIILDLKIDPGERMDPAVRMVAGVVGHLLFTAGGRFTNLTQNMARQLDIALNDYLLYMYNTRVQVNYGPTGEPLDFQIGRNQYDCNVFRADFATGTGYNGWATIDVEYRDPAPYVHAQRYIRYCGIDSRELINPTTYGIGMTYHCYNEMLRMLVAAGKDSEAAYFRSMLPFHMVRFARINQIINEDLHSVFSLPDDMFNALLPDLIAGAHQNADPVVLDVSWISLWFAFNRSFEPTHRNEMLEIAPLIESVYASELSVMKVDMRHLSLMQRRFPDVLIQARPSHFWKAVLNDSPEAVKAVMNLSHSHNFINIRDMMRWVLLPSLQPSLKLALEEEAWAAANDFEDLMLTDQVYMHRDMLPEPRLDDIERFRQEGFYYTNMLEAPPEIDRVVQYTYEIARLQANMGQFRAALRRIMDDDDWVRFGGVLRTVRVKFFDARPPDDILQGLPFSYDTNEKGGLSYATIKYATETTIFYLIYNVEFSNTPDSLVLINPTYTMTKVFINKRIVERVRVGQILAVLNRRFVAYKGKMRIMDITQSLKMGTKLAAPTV
T1 sequence 2: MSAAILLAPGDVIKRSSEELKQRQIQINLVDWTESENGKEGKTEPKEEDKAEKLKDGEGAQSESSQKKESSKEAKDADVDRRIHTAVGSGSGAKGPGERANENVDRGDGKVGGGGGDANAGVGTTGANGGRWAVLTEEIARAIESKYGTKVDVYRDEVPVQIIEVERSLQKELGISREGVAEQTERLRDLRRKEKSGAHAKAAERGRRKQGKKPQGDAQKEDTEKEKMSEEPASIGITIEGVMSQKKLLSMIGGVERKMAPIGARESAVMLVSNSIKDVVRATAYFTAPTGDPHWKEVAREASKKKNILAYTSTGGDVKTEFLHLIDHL

[3] = molecular target: the molecule itself; assay: cryo-EM structure
[4] = molecular target: the molecule itself; assay: SEC + AUC
[5] = molecular target: T1, VP3 (WT, co-expressed with VP6);VP6 (WT); assay: cryo-EM

Molecule: recombinant untagged VP6 of bluetongue virus, wild type (natural protein)
- stoichiometry N [1]: 5

B1: Cy5-labeled 16 nt ssRNA (ssRNA)
RNA: GUUAAAAAAUCGCAUA
- apparent K (half saturation) [2]: 192 nM

B2: recombinant His-tagged VP3 of bluetongue virus, wild type (natural protein)
chain: MAAQNEQRPERIKTTPYLEGDVLSSDSGPLLSVFALQEIMQKVRQVQADYMTATREVDFTVPDVQQILDDIKALAAAQVYKIVKVPSTSFRHIVTQSRDRVLRVDTYYEEMSQVGDVITEDEPEKFYSTIIKKVRFIRGKGSFILHDIPARDHRGMEVAEPEVLGVEFKNVLPVLTAEHRAMIQNALDGSIIENGNVATRDVDVFIGACSEPFYRIYNRFQGYIEAVQLQELRNSIGWLERLGQRKRITYSQEVLTDFRRQDMIWVLALQLPVNPQVVWDVPRSSIANLIMNIATCLPTGEYIAPNPRISSITLTQRITTTGPFAILTGSTPTAQQLNDVRKIYLALMFPGQIILDLKIDPGERMDPAVRMVAGVVGHLLFTAGGRFTNLTQNMARQLDIALNDYLLYMYNTRVQVNYGPTGEPLDFQIGRNQYDCNVFRADFATGTGYNGWATIDVEYRDPAPYVHAQRYIRYCGIDSRELINPTTYGIGMTYHCYNEMLRMLVAAGKDSEAAYFRSMLPFHMVRFARINQIINEDLHSVFSLPDDMFNALLPDLIAGAHQNADPVVLDVSWISLWFAFNRSFEPTHRNEMLEIAPLIESVYASELSVMKVDMRHLSLMQRRFPDVLIQARPSHFWKAVLNDSPEAVKAVMNLSHSHNFINIRDMMRWVLLPSLQPSLKLVLEEEAWAAANDFEDLMLTDQVYMHRDMLPEPRLDDIERFRQEGFYYTNMLEAPPEIDRVVQYTYEIARLQANMGQFRAALRRIMDDDDWIGFGGVLRTVRVKFFDARPPDDILQGLPFSYDTNEKGGLSYATIKYATETTIFYLIYNVEFSNTPDSLVLINPTYTMTKVFINKRIVERVRVGQILAVLNRRFVAYKGKMRIMDITQSLKMGTKLAAPTV
- stoichiometry N [3]: 4
- stoichiometry N [4]: ~4

B3: 40 nt poly-U ssRNA (ssRNA)
RNA: UUUUUUUUUUUUUUUUUUUUUUUUUUUUUUUUUUUUUUUU
- binding result [5]: binds
